Consider 3 molecules from US20100015637A1 (AbbVie / Abbott, published 2010).

Experiment [1] deals with human PlGF-1 comprising amino acids 1-137 produced in human embryonic kidney cells (human) (UniProt P49763). Nature of the experiment: Format 3 Quantikine ELISA, capture MAb264, detection Pb264; sFlt-1 0 pmol/L (ratio 0).
For experiment [2] the target is unchanged. Put plainly: Format 3 Quantikine ELISA, capture MAb264, detection Pb264; sFlt-1 9200 pmol/L (ratio 300). For orientation: ELISA stands for enzyme-linked immunosorbent assay.
For experiment [3] the target is unchanged. Nature of the experiment: Format 3 Quantikine ELISA, capture MAb264, detection Pb264; sFlt-1 1227 pmol/L (ratio 40).
For experiment [4] the target is unchanged. Put plainly: Format 3 Quantikine ELISA, capture MAb264, detection Pb264; sFlt-1 153 pmol/L (ratio 5).
Experiment [5] shares this target. Nature of the experiment: Format 2 …, capture MAb264, detection Pb264; sFlt-1 1533 pmol/L (ratio 50).
For experiment [6] the target is unchanged. Nature of the experiment: Format 1 …, capture 2-826-335, detection 1-255-713; sFlt-1 613 pmol/L (ratio 20).
Experiment [7] has as its target T1, human PlGF-1 comprising amino acids 1-137 produced in human embryonic kidney cells (human, UniProt P49763 19-221).
T1 construct: Mature human PlGF-1 with 6xHis tag; also called HEK (1-137); full length HEK human PlGF-1 (1-137)
T1 sequence: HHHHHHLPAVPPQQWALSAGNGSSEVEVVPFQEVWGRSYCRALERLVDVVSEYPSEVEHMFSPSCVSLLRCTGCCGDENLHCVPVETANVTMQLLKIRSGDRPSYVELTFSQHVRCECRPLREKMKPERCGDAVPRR
Nature of the experiment: … sandwich, capture MAb255, detection pAb264; antigen 60 pg/mL.

In experiment [8] the target is T2, CHO human PlGF-1 comprising amino acids 1-137 (human PlGF-1-His (1-131), CHO 6305) (human, UniProt P49763 19-221, N-glycans at N21 (completely glycosylated) and N89 (partially glycosylated)).
T2 construct: Mature human PlGF-1 with 6xHis tag (137 amino acids); also called CHO (1-137)
T2 sequence: T1 sequence
The description is as above.

Experiment [9] concerns the target T3, CHO human PlGF-1 fragment (comprising amino acids 17-131; ATCC PTA-8540) (human, UniProt P49763 35-221).
T3 sequence: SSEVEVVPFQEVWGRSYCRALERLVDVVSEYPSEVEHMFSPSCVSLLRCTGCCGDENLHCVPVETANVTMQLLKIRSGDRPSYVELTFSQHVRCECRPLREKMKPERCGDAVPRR
The experiment is described as above.

For experiment [10], the target named is T4, human PlGF-1 fragment (comprising amino acids 17-131) produced in human embryonic kidney cells (human, UniProt P49763 35-221).
T4 sequence: T3 sequence
Described as above.

For experiment [11], the target named is T1, human PlGF-1 comprising amino acids …. Nature of the experiment: … sandwich, capture MAb255, detection pAb264; antigen 250 pg/mL.
Experiment [12] deals with T2, CHO human PlGF-1 comprising amino acids …. The experiment is described as above.
Experiment [13] addresses T3, CHO human PlGF-1 fragment (comprising …). Described as above.
Experiment [14] concerns the target T4, human PlGF-1 fragment (comprising amino …). The description is as above.
Experiment [15] has as its target T1, human PlGF-1 comprising amino acids …. Put plainly: … sandwich, capture MAb826, detection pAb264; antigen 0 pg/mL (blank).
In experiment [16] the target is T2, CHO human PlGF-1 comprising amino acids …. Described as above.
The target of experiment [17] is T3, CHO human PlGF-1 fragment (comprising …). The description is as above.
For experiment [18], the target named is T4, human PlGF-1 fragment (comprising amino …). The description is as above.
Experiment [19] concerns the target recombinant human PlGF-1 (comprising amino acids 1-131) expressed in E. coli (R&D Systems) (human) (UniProt P49763). Put plainly: … sandwich, capture MAb826, detection pAb264; antigen 1500 pg/mL.
For experiment [20] the target is unchanged. Put plainly: … sandwich, capture MAb826, detection pAb264; antigen 15 pg/mL.

A word on the % Inhibition: it is the share of the control response that was lost under treatment.

For “native sFlt-1, isolated from human placental tissue (from UniProt P17948 27-687) (receptor)”, the % Inhibition in experiment [1] came out at 0%; in [2] it was 82.2%; in experiment [3], 51.8%; in experiment [4], 24.6%; in experiment [5] it was 93.6%; in [6], 88.3%. Moreover, the PlGF-1 Measured in [1] worked out at 865 pg/mL; in experiment [2], 154 pg/mL; in experiment [3], 417 pg/mL; in [4] it was 652 pg/mL; in [5], 50.4 pg/mL; in experiment [6], 120 pg/mL.

B1: monoclonal antibody 1-255-713 (produced by murine hybridoma cell line 1-255-713, ATCC PTA-8536) (antibody, mouse IgG2a, V domains shown)
VH: QVHLQQSGAELMKPGASVKISCKATGYTFSSYWIEWVKQRPGHGLEWIGEILPGSVSNNFNEKFKDKATLTADPSSNTAYIQVSSLTSEDSAVYYCARSTGFYYGGNYFDHWGQGTTLAVSS
VL: DVVMTQTPLSLPVSPGDQASISCRSSQSLVHSNGHTYLHWYLQKPGQSPKLLIYKVSNRFSGVPDRVSGSGSGTDFTLKISRVEAEDLGVYFCSQSTHVPPTFGGGTKLEIKR
notes: also called MAb255
With B1, the RLU in experiment [7] amounted to 165000 RLU; in [8], 71600 RLU; in experiment [9], 81200 RLU; in experiment [10] it was 107000 RLU; in experiment [11], 559000 RLU; in [12], 226000 RLU. Besides, the RLU stood at 283000 RLU in experiment [13] and 363000 RLU in [14].

B2: monoclonal antibody 2-826-335 (produced by murine hybridoma cell line 2-826-335, ATCC PTA-8539) (antibody, mouse IgG1, V domains shown)
VH: QVQLKQSGPGLVQPSQSLSITCTVSGFSLTTYGIHWVRQSPGKGLEWLGVMWSGGDTDYDAAFISRLSISKDNSKSQVFFKMNSLQANDTGIYYCARYRFYGMDYWGQGTSVTVSS
VL: AIQMTQSSSSFSVSLGDRVTITCKASEDIYNRFAWYQQKPGNAPRLLISGAASLEAGVPSRFSGSGSGQDYTLSITSLQTEDVATYYCQQYWSTPWTFGGGTKLEIKR
notes: also called MAb826
With B2, the RLU in experiment [15] turned out to be 6530 RLU; in experiment [16], 6600 RLU; in [17] it was 6680 RLU; in [18], 6590 RLU; in experiment [19] it was 1.08e+06 RLU; in [20], 19600 RLU.
